Results: patent US20030228371A1 (STASYS TECHNOLOGIES, published 2003)
Like-named read-outs stand apart in the source and are kept apart here. Square brackets hold non-standard residues; d marks the D form. Ends that are not written are not given here. * marks the point of attachment. 2Thi = N[C@@H](Cc1cccs1)C(=O)O; Nicotinoyl = O=C(c1cccnc1)*

T1: human angiotensin AT2 receptor (human, UniProt P50052 1-363)
T1 sequence (looked up): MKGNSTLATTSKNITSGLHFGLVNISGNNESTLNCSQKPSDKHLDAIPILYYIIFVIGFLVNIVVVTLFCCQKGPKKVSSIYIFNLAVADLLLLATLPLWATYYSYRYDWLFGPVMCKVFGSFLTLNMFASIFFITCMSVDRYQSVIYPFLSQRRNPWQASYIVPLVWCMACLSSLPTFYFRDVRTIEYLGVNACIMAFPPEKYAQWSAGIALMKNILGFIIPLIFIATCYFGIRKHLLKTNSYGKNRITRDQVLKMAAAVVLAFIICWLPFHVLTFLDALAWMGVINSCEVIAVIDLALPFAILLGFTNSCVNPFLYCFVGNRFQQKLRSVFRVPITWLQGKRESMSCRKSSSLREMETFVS

T2: human angiotensin AT2 receptor (human) (UniProt P50052)
T2 sequence (looked up): T1 sequence (looked up)

T3: Bradykinin B1
T3 sequence (P46663 whole entry, species assumed, looked up): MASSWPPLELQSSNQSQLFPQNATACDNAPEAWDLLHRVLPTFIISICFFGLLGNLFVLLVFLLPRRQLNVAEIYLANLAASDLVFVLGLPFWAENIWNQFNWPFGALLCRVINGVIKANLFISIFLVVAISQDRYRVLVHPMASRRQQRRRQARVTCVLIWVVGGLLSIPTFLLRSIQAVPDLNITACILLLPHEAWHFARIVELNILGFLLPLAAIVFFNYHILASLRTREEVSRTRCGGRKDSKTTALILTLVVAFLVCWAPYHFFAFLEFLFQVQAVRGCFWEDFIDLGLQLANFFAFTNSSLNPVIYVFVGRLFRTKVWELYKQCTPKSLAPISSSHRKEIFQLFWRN

T4: Thyrotropin Releasing Hormone
T4 sequence (P34981 whole entry, species assumed, looked up): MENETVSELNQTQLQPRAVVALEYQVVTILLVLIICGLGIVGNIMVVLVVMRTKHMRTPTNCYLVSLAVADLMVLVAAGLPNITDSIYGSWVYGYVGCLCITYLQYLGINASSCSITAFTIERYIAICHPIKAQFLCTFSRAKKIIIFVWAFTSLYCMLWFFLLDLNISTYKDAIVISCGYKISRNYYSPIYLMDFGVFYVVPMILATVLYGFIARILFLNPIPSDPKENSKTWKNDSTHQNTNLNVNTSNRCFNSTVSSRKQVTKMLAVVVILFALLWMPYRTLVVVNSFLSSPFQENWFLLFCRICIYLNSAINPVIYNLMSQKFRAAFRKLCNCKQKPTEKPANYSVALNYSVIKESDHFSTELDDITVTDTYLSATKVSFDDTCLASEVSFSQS

B1: Lys-(Des-Arg9, Leu8)-Bradykinin (peptide)
peptide: KRPPGFSPL
notes: also called VP041
B2: B9340 (peptide)
peptide: XRPXGXSXXR
modifications: D-Arg at 0; Hyp at 3; Thi at 5; D-Igl at 7; Oic at 8 (bradykinin numbering)
B3: [Thi5,8,DPhe7] Bradykinin (peptide)
peptide: RPPG[2Thi]S[dF][2Thi]R
B4: CGP-42112A (peptide)
peptide: Nicotinoyl-YKHPI-OH
modifications: not fully specified (residue 2)
notes: Modified peptide ligand of the AT2 receptor and radioligand of the assay; also called CPG42112A
B5: Met-Lys0] Bradykinin (peptide)
peptide: MKRPPGFSPFR
notes: also called VP049
B6: Bradykinin (1-6) (peptide)
peptide: RPPGFS
B7: [Tyr8] Bradykinin (peptide)
peptide: RPPGFSPYR
B8: Bradykinin (1-5) (peptide)
peptide: RPPGF
B9: Bradykinin (2-9) (peptide)
peptide: PPGFSPFR
B10: Ile-Ser0]-Bradykinin (peptide)
peptide: ISRPPGFSPFR
notes: also called VP054
B11: human form of Fibrinopeptide-A (peptide)
peptide: ADSGEGDFLAEGGGVR
B12: Bradykinin (1-7) (peptide)
peptide: RPPGFSP
notes: also called VP060
B13: [DPhe7] Bradykinin (peptide)
peptide: RPPGFS[dF]FR
B14: [Lys0] Bradykinin (peptide)
peptide: KRPPGFSPFR
notes: also called VP048
B15: [Tyr0] Bradykinin (peptide)
peptide: YRPPGFSPFR
notes: also called VP051
B16: Lys0-Ala3] Bradykinin (peptide)
peptide: KRPAGFSPFR
notes: also called VP050
B17: B9430 (peptide)
peptide: XRPXGXSXXR
modifications: D-Arg at 0; Hyp at 3; Igl at 5; D-Igl at 7; Oic at 8 (bradykinin numbering)
B18: Tyr5] Bradykinin (peptide)
peptide: RPPGYSPFR
notes: also called VP053
B19: Bradykinin (2-7) (peptide)
peptide: PPGFSP
B20: Hoe 140 (peptide)
peptide: XRPXGXSXXR
modifications: D-Arg at 0; Hyp at 3; Thi at 5; D-Tic at 7; Oic at 8 (bradykinin numbering)

Key:
[1] = target: T1, human angiotensin AT2 receptor
[2] = target: T1, human angiotensin AT2 receptor; remark: listed apart in the source
[3] = target: T1, human angiotensin AT2 receptor; remark: listed apart in the source
Experimental: (§1) Compounds were screened at 10 μM. […] Biochem. Biophys. Res. Comm.

[4] = target: T1, human angiotensin AT2 receptor; assay: [125I]CGP-42112A binding to membranes of HeLa cells expressing human AT2 receptor
Experimental: as §1

[5] = target: T2, human angiotensin AT2 receptor (human)
[6] = target: Vascular endothelial growth factor; assay: receptor panel ligand-binding screen, FPAh at 10 µM
Glutamate AMPA = assay: as above
Bradykinin B1 = target: T3, Bradykinin B1; assay: as above
Cholecystokinin = assay: as above
[7] = target: T4, Thyrotropin Releasing Hormone; assay: as above
[8] = target: Inositol Triphosphate IP3; assay: as above
Estrogen ERa = assay: as above
Potassium Channel [Ka] = assay: as above
Serotonin 5-HT 2a = assay: as above
Chain of Serotonin 5-HT 2a (P28223 whole entry): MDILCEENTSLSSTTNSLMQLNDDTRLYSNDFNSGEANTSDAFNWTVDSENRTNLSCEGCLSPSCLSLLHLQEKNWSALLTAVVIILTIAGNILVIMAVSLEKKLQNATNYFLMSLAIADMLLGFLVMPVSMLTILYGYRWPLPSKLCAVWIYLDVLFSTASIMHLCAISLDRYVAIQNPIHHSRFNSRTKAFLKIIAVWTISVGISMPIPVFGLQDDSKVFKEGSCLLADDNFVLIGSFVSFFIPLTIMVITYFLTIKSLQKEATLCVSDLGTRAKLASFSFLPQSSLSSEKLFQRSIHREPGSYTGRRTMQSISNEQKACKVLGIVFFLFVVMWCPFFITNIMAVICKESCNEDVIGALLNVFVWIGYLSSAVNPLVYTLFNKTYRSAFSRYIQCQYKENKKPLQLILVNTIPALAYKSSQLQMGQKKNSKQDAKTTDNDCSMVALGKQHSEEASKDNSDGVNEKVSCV

Row | Molecule | % Inhibition ATII receptor [1] [%] | % Inhibition ATII receptor [3] [%] | further results
1 | [Lys0-Hyp3] Bradykinin (peptide) | 13 |  | 
2 | N-Admantanecarbonyl-DArg0-Hyp3, Thi5,8, DPhe7] Bradykinin (peptide) | 63 |  | 
3 | N-Admantaneacetyl-DArg0-Hyp3, Thi5,8,DPhe7] Bradykinin (peptide) | 61 |  | 
4 | Saralasin (peptide) |  |  | IC50 [2]: 280 pM; Ki [2]: 91 pM; nH [2]: 0.9
5 | Bradykinin (1-3) (peptide) | -2 |  | 
6 | B1 |  | 98 | 
7 | B2 | 35 |  | 
8 | B3 | 53 |  | 
9 | B4 |  |  | Kd [4]: 12 pM; IC50 [3]: 24 pM; Ki [3]: 7.8 pM; nH [3]: 1.1
10 | B5 |  | 38 | 
11 | B6 | -12 |  | 
12 | B7 |  |  | % Inhibition ATII receptor [5]: -1%
13 | B8 | 1 |  | 
14 | B9 | -13 |  | 
15 | B10 |  | 29 | 
16 | B11 |  |  | % stimulated (ligand-receptor binding) [6]: 22%; % stimulated (ligand-receptor binding) (Glutamate AMPA): 30%; % inhibited (ligand-receptor binding) (Bradykinin B1): 24%; % inhibited (ligand-receptor binding) (Cholecystokinin): 33%; % inhibited (ligand-receptor binding) [7]: 23%; % inhibited (ligand-receptor binding) [8]: 33%; % inhibited (ligand-receptor binding) (Estrogen ERa): 33%; % inhibited (ligand-receptor binding) (Potassium Channel [Ka]): 25%; % stimulated (ligand-receptor binding) (Serotonin 5-HT 2a): 21%
17 | B12 |  | 55 | 
18 | B13 | 9 |  | 
19 | B14 |  | 29 | 
20 | B15 |  | 33 | 
21 | B16 |  | 18 | 
22 | B17 | 70 |  | 
23 | B18 |  | 13 | 
24 | B19 | -6 |  | 
25 | B20 | 29 |  | 
